The source of these data is FireProtDB (doi:10.1021/bi00005a026).

B1: Subtilisin-chymotrypsin inhibitor-2A, P01053 (parent)
chain: MSSVEKKPEGVNTGAGDRHNLKTEWPELVGKSVEEAKKVILQDKPEAQIIVLPVGTIVTMEYRIDRVRLFVDKLDNIAQVPRVG

In this series the parent is B1. The conditions noted are these: Hordeum vulgare, pH 6.3, Thermal, Fluorescence, phosphate 10 mM, reversible: yes, structure 2CI2, whole UniProt chain shown; for ddG of mutation (higher = less stable): 46.6 °C.

The Tm is the temperature at the midpoint of the melting transition. For F70L, the “ddG of mutation (higher = less stable)” value turned out to be 2.11 kcal/mol; the midpoint of thermal melting (Tm) amounted to 32.5 °C; the “change of melting temperature, mutant - wild type (higher = more stable)” value (from here on “change of melting temperature, mutant”) is -14.1 °C; the “unfolding enthalpy (van 't Hoff)” value was 27.5 kcal/mol.
On to V54T, for which the “ddG of mutation (higher = less stable)” value turned out to be 1.03 kcal/mol.
For I77V, the “ddG of mutation (higher = less stable)” value is -0.19 kcal/mol; the Tm was found to be 47.7 °C; the “change of melting temperature, mutant” value stood at 1.1 °C; the “unfolding enthalpy (van 't Hoff)” value came to 34.6 kcal/mol.
Turning to K44A, the Tm came to 40.8 °C; the “change of melting temperature, mutant” value was -5.8 °C; the “unfolding enthalpy (van 't Hoff)” value was found to be 24.6 kcal/mol.
Regarding V71A, the “ddG of mutation (higher = less stable)” value amounted to 1.95 kcal/mol; the Tm was determined as 29.8 °C; the “change of melting temperature, mutant” value is -16.8 °C; the “unfolding enthalpy (van 't Hoff)” value worked out at 33.5 kcal/mol.
